# According to the DeepSol protein solubility set:
# Assay: soluble on expression in E. coli; label from the status in PepcDB or PDB records
row,Sequence,soluble on expression in E. coli
1,MPSSTTVPTRRGLVSGPSSSDAHGDMPAVSVIMNCLNCERDLAEAIGSVFAQTFDDWEIVFWDNGSTDRSAEIAQGFGERVRYFRATETVPLGAARNLAIAKARGEFIAFLDCDDVWLPEKLERQVALFRANPRVGLVCTDTVMFTGAKDLNRLFEHAHPARGHVFRELMTTQWISMSSAVIRRNALDGMDHWFDESLNVCEEADVFYRIAWDWELDHVDAPLTRWRVHGANTTFRKFGQFAEETLRILDKHRAMYPGYDERYADLVALLRRRAAFQRAVALWREGRGAEARATIAPFDASPKFRLFRLATYLPGALFDPLARLYFALPAFLRRLEHHHHHH,not soluble
2,MSLSQKNNNELPKQAAENTLNLNPVIGIRGKDLLTSARMVLLQAVRQPLHSARHVAHFSLELKNVLLGQSELRPGDDDRRFSDPAWSQNPLYKRYMQTYLAWRKELHSWISHSDLSPQDISRGQFVINLLTEAMSPTNSLSNPAAVKRFFETGGKSLLDGLGHLAKDLVNNGGMPSQVDMDAFEVGKNLATTEGAVVFRNDVLELIQYRPITESVHERPLLVVPPQINKFYVFDLSPDKSLARFCLRNGVQTFIVSWRNPTKSQREWGLTTYIEALKEAIEVVLSITGSKDLNLLGACSGGITTATLVGHYVASGEKKVNAFTQLVSVLDFELNTQVALFADEKTLEAAKRRSYQSGVLEGKDMAKVFAWMRPNDLIWNYWVNNYLLGNQPPAFDILYWNNDTTRLPAALHGEFVELFKSNPLNRPGALEVSGTPIDLKQVTCDFYCVAGLNDHITPWESCYKSARLLGGKCEFILSNSGHIQSILNPPGNPKARFMTNPELPAEPKAWLEQAGKHADSWWLHWQQWLAERSGKTRKAPASLGNKTYPAGEAAPGTYVHEREGHHHHHH,soluble
3,MLEQPYLDLAKKVLDEGHFKPDITHTGTYSIFGHQMRFDLSKGFPLLTTKKVPFGLIKSELLWFLHGDTNIRFLLQHRNHIWDEWAFEKWVKSDEYHGPDMTDFGHRSQKDPEFAAVYHEEMAKFDDRVLHDDAFAAKYGDLGLVYGSQWRAWHTSKGDTIDQLGDVIEQIKTHPYSRRLIVSAWNPEDVPTMALPPCHTLYQFYVNDGKLSLQLYQRSADIFLGVPFNIASYALLTHLVAHECGLEVGEFIHTFGDAHLYVNHLDQIKEQLSRTPRPAPTLQLNPDKHDIFDFDMKDIKLLNYDPYPAIKAPVAV,soluble
4,IYQMAGLNEDADRNLWLAAFRDPYGKNNLDIASLKKSIAQWAKTQGKTIAPEKVDAVLKDRTGSAVCLTCGKNGKMKMPLKSLAWIQGSSSYSQAEVIEQTEETNSAEISETRTPEVPDVHTPEAQPHLNTQSDGTPTAYTEPAADSSPQVETPDQAASEPVDVLFSIDVIRQGNLRLGN,not soluble
5,MAHHHHHHMSALKDKTGRFVVLDKNASNYESLVDQEMNNVYERVMKLDPNQVEFLQAFHEILYSLKPLFMEEPKYLPIIETLSEPERAIQFRVCWLDDNGVQRKNRCFRVQYNSALGPYKGGLRFHPSVNLSIVKFLGFEQIFKNSLTGLSMGGGKGGSDFDPKGKSDNEILKFCQAFMNELYRHIGPCTDVPAGDIGVGGREIGYLYGQYKKIVNSFNGTLTGKNVKWGGSNLRVEATGYGLVYFVLEVLKSLNIPVEKQTAVVSGSGNVALYCVQKLLHLNVKVLTLSDSNGYVYEPNGFTHENLEFLIDLKEEKKGRIKEYLNHSSTAKYFPNEKPWGVPCTLAFPCATQNEINLEDAKLLQKNGCILVGEGANMPSTVDAINLFKSNNIIYCPSKAANAGGVAISGLEMSQNFQFSHWTRETVDEKLKEIMRNIFIACSENALKYTKNKYDLQAGANIAGFLKVAESYIEQGCF,soluble
6,MKIAFLRPGKIGTPANHVYALLDYLREKGAEIREYDLKERDVNDVVKEIEEWKPLFLMDVNATGVIVAERDGKKHILADILGIVHVSVFFEDPLLFFPAFEGVEKPQNYIAFITELKHTDSLTALGIQNISYISPFVDLKQFPESEGEKDIEIAFVGPVVDPQIILNSVSQNYPQEIMPFFIETGEFMFRNPEVHILTAFNYVFGLFNPQMQEQFNKWREQNPSAFMRFLNDITAYTTMRRRMYLLHFLDGMDVKILGDYQGNLFENHEAIKVSSYEQLLKYYSRSNITVYVSPQTYPTGLSVIPLEILYMGSLPLIDFKGAIPGFLKPGEEIETFAPLDRADLEEKIVFYIEENREGINEIVQRGKKAVQERFTVKDRGEFVYNVLSDVKRQYEAAQKGQVN,not soluble
7,SMVQSSGPMDVTSLTEELKKLAKQGWYWGPITRWEAEGKLANVPDGSFLVRDSSDDRYLLSLSFRSHGKTLHTRIEHSNGRFSFYEQPDVEGHTSIVDLIEHSIGDSENGAFCYSRSRLPGSATYPVRLTNPVSRFMQVRS,soluble
8,MAHHHHHHMRRGGTVVFQRHRVSGGISRANEMSAFARLRGGQQKTETDWVPTLLLSGETPPPIARPAETAAFFLASFDPFVFSYCMFDFPTILHHAGELSEHELLDYPGSMLMSPRSLFLQPTAHLRFGSERQQRMAVVLQSLLDRHDESERSPVPCARALGVQCPLFVPFLRGVCLCVETQHPFAPQAAYVFEELLASGFVSSTLYLDGTYVDRNRTLAQIVQLAAREFGSESALFTGLLLDEEHASPPETIAVGRLVAQTLAAADRRRLDWALKTRGAVRQRLVPQHGWTLGPSPSLLSTAQQ,soluble
9,MGSDKIHHHHHHMSQDVPGNLLDEIRILRSPKGYLYAGLPKFRALFGRDSIISSIQLIDLFPDIAQNTVIYLKDLQGRKLDYSIGEYPGKILHEYYDDEKIFLDRKRSIPWLNSRINYFSVDSTPLFILLIKNLFLRNLIDIEQFKDSIMMAMQFLIAYSSSDGLITYDKALLGAGLMSQSWRDGVGDIMDRLKSPVATVGVQGYFYESADFVLNLFPDSLIEESLPDLKDFYSKMREILENKFWLEETGYYGLAVDGDGVIEQAATSDPGHLIGSGILTRSRERDVIDRLFESDLLTDYGIRTLSAKDPRFDPKAYQRGSIWPQDNWIIADGIKRRGYLKEYRELRERLIAAYEYYGRMPEYFGVDRYGKIMDLSKLRIKPCYPQAWSTGAIINFVTFK,not soluble
10,MSLSVRFAGMATCVPKRVVSNLTDCKPQIRPERERLVRNIGIELRRLTQEWQCFSDLAFDAASKLIESLEWKLEEIDALIVVTQSPDYLAPATAIILQDRLGLPHTTLAFDVNLGCSGYPFGLHLLGSLISAGGIKKGLVLVGDSGAQLNDPIFSDAGTATAMEFCADAPPMYFDLNSDGSGHKAIILPVGGHREPVGIQHLVPFRENENDHWHRAIDLQLDGTAVLSFSTQRVPPAVEKLLEYANASKDEVDYFIFHQANRMINETIRKKLALPVEKVPSTLRDFGNTSGASLPVTMTARINKQLEEGSKRLVLSGFGIGLSWGTCLVDIQGAKFPDLIESEGHHHHHH,not soluble
11,MSLAYMPMTTVQHIATTNEKQAQKIIAELNAGASFDSQVRKYQNNRQAHTTAGKLAQFDSYNQTLAPAIVQATAKLRVGHYVTKPVKTVMATADTKDKPTYEIINVVSREGHHHHHH,soluble
12,MVNGDGNPREVIEDLAANNPAIQNIRLRHENKDLKARLENAMEVAGRDFKRAEELEKAKQALEDQRKDLETKLKELQQDYDLAKESTSWDRQRLEKELEEKKEALELAIDQASRDYHRATALEKELEEKKKALELAIDQASQDYNRANVLEKELE,soluble
13,MSTENAHLQKEDIVIESWLHKKGEHIRNWRPRYFILFRDGTLLGFRSKPKEDQPLPEPLNNFMIRDAATVCLDKPRPNMFIVRCLQWTTVIERTFYADSADFRQMWIEAIQAVSSHNRLKENAGNTSMQEEDTNGNPSGESDVNMDATSTRSDNDFESTVMNIDEPEEVPRKNTVTMDDFDFLKVLGQGTFGKVILCREKSSDKLYAIKIIRKEMVVDRSEVAHTLTENRVLYACVHPFLTLLKYSFQAQYHICFVMEFANGGELFTHLQRCKTFSEARTRFYGSEIILALGYLHHRNIVYRDMKLENLLLDRDGHIKITDFGLCKEEIKYGDKTSTFCGTPEYLAPEVIEDIDYDRSVDWWGVGVVMYEMMCGRLPFSAKENGKLFELITTCDLKFPNRLSPEAVTLLSGLLERVPAKRLGAGPDDAREVSRAEFFKDVDWEATLRKEVEPPFKPNVMSETDTSFFDRVRYVSILLKVSEAI,not soluble
14,MSLKNPLKLCGIEFTEYATPDSDFMEKAFYGFGFSKTKKMKGRDVEYFNQNDIHFLLNKEKAGFSKEFAKSHGPAICSMGWRVEDANFAFNEAVKRGAKSAENEANKLPYPAIFGIGDSLIYFIENFAKTGTNKGLIYDTDFEDIAEPVIVEDKGFLAVDHLTNNVYQGTMHKWADFYKDVFGFTEVRYFDIKGVKTALISYALASPCGKFCIPINEGKGSKDNQIDEYLNEYNGPGVQHLAFITDDLVGSLDKLDRSIVDTLNIVPEYYDEIFDRVPWVKEDKARIKEHQILVDSQSEDSYLLQIFTKNLFGPIFIEMIQRVDDQGFGEGNFSTLFKSIELNQMERGEGHHHHHH,soluble
15,MTLNITSKQMDITPAIREHLEERLAKLGKWQTQLISPHFVLNKVPNGFSVEASIGTPLGNLLASATSDDMYKAINEVEEKLERQLNKLQHKSESRRADERLKDSFEN,soluble
16,MGSDKIHHHHHHMAFTNNVMIVRHGLLAKLVKLWKENRLLEEIDRLPIELSPRKSKVRGRCCVHKERAVWKYKTLPLLGFDMQDEEDELTPLSEYAKRALFRSENKKENIMCVVDEACSSCVSVNYEITNLCRGCVARSCYMNCPKDAIRFKKNGQAEIDHETCISCGKCHQSCPYHAIVYIPIPCEEVCPVKAISKDKYGVEHIDESKCIYCGKCVNACPFGAIFEISQVFDILQRLRNKEQMVAIVAPSILAQFSAPKEKVYGAIKSLGFEEVVEVAQGAMETTRHEAEELIEKLKEGQPFMTTSCCPSYVQLAEKHIPDLKKYISSTGSPMYYTARIVKEKYPDAKIVFVGPCVAKRKEVKLDPCVDFTLTFEEVGSVLEGLGIKIEEAQPFSVLFNAVREAHGFAQSGGVINAVKVYLKDENVNAVQVANLTKKNVALLRAYAKTGKAPAQFIEVMACEGGCVTGPCTHADKTAGQKQLIKELTKF,not soluble
17,MGSDKIHHHHHHMVAITSCSDDSDGIPGWPWNDNSTEGPENPDVTEIKPRYVWIDAAANFPDYANNKENISTDMVKVKNAGFTDIIVDVRPTTGDVLFNTTAVDQVKRMDVWGSSGYVYYERTETWDYLQAFIDAARSQGLKVHASVNTFVGGYLCPYNLGSDGILFRDDSKKEWASVANLADGLTNTMDLLNDETDYGAKFLNPANDDVQNFVLQLLGDLAKYDLDGIILDRCRYDDYGLESDFSAVSKQKFEEYIGETVAHFPEDIMAPGTDEIPSDQPAYFKKWLEFRVKVIHDFIVKAREKVKSVNSEINFGVYVGAWYSSYYTSGVNWASPKYDTSAYYPKWATADYKNYGYADHLDYIFLGAYASVDKIYGSGEWTMEGFCKNGRELLKGDVPFSGGPDIGNGTGWTNGGQAAKIPDAIDACINNSDGFFAFDLCHIKMYDYWNAFKTGFDNYLESVQK,not soluble
18,MSLVISIRRSRHEEGEELVAIWCRSVDATHDFLSAEYRTELEDLVRSFLPEAPLWVAVNERDQPVGFMLLSGQHMDALFIDPDVRGCGVGRVLVEHALSMAPELTTNVNEQNEQAVGFYKKVGFKVTGRSEVDDLGKPYPLLNLAYVGAEGGSHHHHHH,soluble
